# Columns and labels:
# Assay in all cases: flow cytometry on cells; T cells stably expressing the IL13-based CARs titrated with recombinant biotinylated receptor (IL13Rα1-Fc, IL13Rα2-Fc or mouse IL13Rα1); dose-response curves, three independent trials
# [1] = target: IL13 E12Y CAR (IL13 E12Y - IgG4(EQ)-Fc linker - CD28 transmembrane and costimulatory domain - CD3ζ) on T cells
# [2] = target: IL13 D7 CAR (IL13 D7 - IgG4(EQ)-Fc linker - CD28 transmembrane and costimulatory domain - CD3ζ) on T cells
# [3] = target: IL13 C4 CAR (IL13 C4 - IgG4(EQ)-Fc linker - CD28 transmembrane and costimulatory domain - CD3ζ) on T cells
# [4] = target: IL13 WT CAR (IL13 - IgG4(EQ)-Fc linker - CD28 transmembrane and costimulatory domain - CD3ζ) on T cells
Kd [1] [nM],Kd [2] [nM],Kd [3] [nM],Kd [4] [nM],Binder
1.8,4.2,29,1.7,"Recombinant human IL13Rα2-Fc chimera (Fc fusion, biotin (in the titration of CAR T cells)) DTEIKVNPPQDFEIVDPGYLGYLYLQWQPPLSLDHFKECTVEYELKYRNIGSETWKTIITKNLHYKDGFDLNKGIEAKIHTLLPWQCTNGSEVQSSWAETTYWISPQGIPETKVQDMDCVYYNWQYLLCSWKPGIGVLLDTNYNLFYWYEGLDHALQCVDYIKADGQNIGCRFPYLEASDYKDFYICVNGSSENKPIRSSYFTFQLQNIVKPLPPVYLTFTRESSCEIKLKWSIPLGPIPARCFDYEIEIREDDTTLVTATVENETYTLKTTNETRQLCFVVRSKVNIYCSDDGIWSEWSDKQCWEGEDLSKKTLLR"
34,,,34,"Recombinant human IL13Rα1-Fc chimera (Fc fusion, biotin (in the titration of CAR T cells)) GGGGAAPTETQPPVTNLSVSVENLCTVIWTWNPPEGASSNCSLWYFSHFGDKQDKKIAPETRRSIEVPLNERICLQVGSQCSTNESEKPSILVEKCISPPEGDPESAVTELQCIWHNLSYMKCSWLPGRNTSPDTNYTLYYWHRSLEKIHQCENIFREGQYFGCSFDLTKVKDSSFEQHSVQIMVKDNAGKIKPSFNIVPLTSRVKPDPPHIKNLSFHNDDLYVQWENPQNFISRCLFYEVEVNNSQTETHNVFYVQEAKCENPEFERNVENTSCFMVPGVLPDTLNTVRIRVKTNKLCYEDDKLWSNWSQEMSIGKKRNST"

# — publication PMC9388138
